US20250333518A1 (ROCK BIOMEDICAL, published 2025)

T1: CD20 (UniProt P11836 1-297, limits assumed)
T1 construct: also called the antigen (of Rituximab and Obinutuzumab)
T1 sequence (looked up): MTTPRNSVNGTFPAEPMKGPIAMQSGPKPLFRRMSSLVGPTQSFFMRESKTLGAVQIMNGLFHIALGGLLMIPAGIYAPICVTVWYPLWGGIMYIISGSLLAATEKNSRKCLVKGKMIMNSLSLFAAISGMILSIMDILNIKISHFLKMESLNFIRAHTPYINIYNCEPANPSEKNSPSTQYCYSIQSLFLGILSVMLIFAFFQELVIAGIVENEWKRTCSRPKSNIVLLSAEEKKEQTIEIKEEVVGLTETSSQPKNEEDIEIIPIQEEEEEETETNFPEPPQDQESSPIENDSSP


Molecular target: T1, CD20
Experiment: ELISA, target binding

Row | EC50 [nM] | Binder
1 | 0.77 | Rituximab (MabThera® or Rituxan®) population produced by the SAII A3 Fut8 KO cells according to the present disclosure (antibody, human IgG1, kappa, V domains shown, N-glycan: sialylated complex type glycans around 83.4% of the glycans, no core fucose, Differs from the commercial product in the glycan profile only; also called Biobetter Rituximab; glycoengineered MabThera®) VH: QVQLQQPGAELVKPGASVKMSCKASGYTFTSYNMHWVKQTPGRGLEWIGAIYPGNGDTSYNQKFKGKATLTADKSSSTAYMQLSSLTSEDSAVYYCARSTYYGGDWYFNVWGAGTTVTVSA VL: QIVLSQSPAILSASPGEKVTMTCRASSSVSYIHWFQQKPGSSPKPWIYATSNLASGVPVRFSGSGSGTSYSLTISRVEAEDAATYYCQQWTSNPPTFGGGTKLEIKR
2 | 0.544 | Rituximab, commercially available product (MabThera®) (antibody, human IgG1, kappa, V domains shown, Bought product; also called Rituxan) VH: QVQLQQPGAELVKPGASVKMSCKASGYTFTSYNMHWVKQTPGRGLEWIGAIYPGNGDTSYNQKFKGKATLTADKSSSTAYMQLSSLTSEDSAVYYCARSTYYGGDWYFNVWGAGTTVTVSA VL: QIVLSQSPAILSASPGEKVTMTCRASSSVSYIHWFQQKPGSSPKPWIYATSNLASGVPVRFSGSGSGTSYSLTISRVEAEDAATYYCQQWTSNPPTFGGGTKLEIKR
